{"source": "patent US20220025010A1", "about": "(ANTAG THERAPEUTICS, published 2022)", "note": "*1 amine or outer side, *2 acyl side, *3 side chain or, on linkers, in order; H or OH if unused. Where no end group is shown, it is not given here. Side-chain parts run from the residue outwards. The star is where a group is joined. C18 diacid = O=C(O)CCCCCCCCCCCCCCCCC(=O)*; C16 diacid = O=C(O)CCCCCCCCCCCCCCC(=O)*; γGlu = O=C(O)[C@H](CCC(=O)[*:2])N[*:1]; AEEA = NCCOCCOCC(=O)O"}
{"target": "T1, human GIP receptor (human, UniProt P48546 22-466)", "T1 sequence (looked up)": "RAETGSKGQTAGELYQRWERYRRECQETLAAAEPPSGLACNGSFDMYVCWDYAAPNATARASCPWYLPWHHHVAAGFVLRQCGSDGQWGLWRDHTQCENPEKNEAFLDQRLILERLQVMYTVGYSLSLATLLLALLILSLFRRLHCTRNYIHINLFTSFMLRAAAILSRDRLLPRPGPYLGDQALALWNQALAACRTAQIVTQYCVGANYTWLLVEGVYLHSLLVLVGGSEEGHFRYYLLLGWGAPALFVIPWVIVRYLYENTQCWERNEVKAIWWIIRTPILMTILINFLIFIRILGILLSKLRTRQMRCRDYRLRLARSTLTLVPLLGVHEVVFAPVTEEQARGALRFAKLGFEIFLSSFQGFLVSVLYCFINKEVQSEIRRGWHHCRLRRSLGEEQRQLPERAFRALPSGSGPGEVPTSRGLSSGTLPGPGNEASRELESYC", "test": "cell-based or functional assay", "units": {"CisBio cAMP agonism % Efficacy": "%", "CisBio cAMP antagonism % inhib": "%", "CisBio cAMP antagonism IC50": "nM", "DiscoveRx cAMP antagonism IC50": "nM", "DiscoveRx cAMP antagonism log IC50": "log M", "DiscoveRx cAMP antagonism % inhib": "%"}}
{"binder": "TFISDYSIALDRIKQQDFVNWLLAQR-NH2 (not fully specified (residue 14); printed as TFISDYSIALDRIKQQDFVNWLLAQR-(AEEAc +γ-Glu)-C16-diacid/K18)", "note": "[AT234]", "CisBio cAMP agonism % Efficacy": 0, "CisBio cAMP antagonism % inhib": 66, "CisBio cAMP antagonism IC50": 39.8, "CisBio cAMP antagonism pIC50": 7.4, "DiscoveRx cAMP agonism Emax": 26, "DiscoveRx cAMP antagonism IC50": 16, "DiscoveRx cAMP antagonism log IC50": -7.8}
{"binder": "EGTFISDYSIAMDRIK([AEEA-AEEA-AEEA-γGlu-C16 diacid])QQDFVNWLLAQR-NH2 (not fully specified (residue 1))", "note": "[AT375]", "CisBio cAMP agonism % Efficacy": 6, "CisBio cAMP antagonism % inhib": 83, "CisBio cAMP antagonism IC50": 23.3, "CisBio cAMP antagonism pIC50": 7.6, "DiscoveRx cAMP antagonism % inhib": 100, "DiscoveRx cAMP antagonism IC50": 22, "DiscoveRx cAMP antagonism log IC50": -7.7}
{"binder": "EGTFISDYSIAMDRIK([AEEA-AEEA-γGlu-C18 diacid])QQDFVNWLLAQR-NH2 (not fully specified (residue 1))", "note": "[AT377]", "CisBio cAMP agonism % Efficacy": 0, "CisBio cAMP antagonism % inhib": 90, "CisBio cAMP antagonism IC50": 18.5, "CisBio cAMP antagonism pIC50": 7.7, "DiscoveRx cAMP antagonism % inhib": 100, "DiscoveRx cAMP antagonism IC50": 19, "DiscoveRx cAMP antagonism log IC50": -7.7}
{"binder": "EGTFISDYSIAMDRIK([AEEA-AEEA-AEEA-γGlu-C18 diacid])QQDFVNWLLAQR-NH2 (not fully specified (residue 1))", "note": "[AT378]", "CisBio cAMP agonism % Efficacy": 0, "CisBio cAMP antagonism % inhib": 90, "CisBio cAMP antagonism IC50": 11.7, "CisBio cAMP antagonism pIC50": 7.9, "DiscoveRx cAMP antagonism % inhib": 92, "DiscoveRx cAMP antagonism IC50": 16, "DiscoveRx cAMP antagonism log IC50": -7.8}
{"binder": "SGTFISDYSIAMDRIKQQDFVNWLLAQR (HELM PEPTIDE1{S.G.T.F.I.S.D.Y.S.I.A.M.D.R.I.K.Q.Q.D.F.V.N.W.L.L.A.Q.R}|PEPTIDE2{[O=C(O)CCCCCCCCCCCCCCC(=O)[*:2]].[gGlu]}$PEPTIDE1,PEPTIDE2,16:R3-2:R2$$$V2.0; N-terminus assumed; SMILES CC[C@H](C)[C@H](NC(=O)[C@H](CO)NC(=O)[C@H](Cc1ccc(O)cc1)NC(=O)[C@H](CC(=O)O)NC(=O)[C@H](CO)NC(=O)[C@@H](NC(=O)[C@H](Cc1ccccc1)NC(=O)[C@@H](NC(=O)CNC(=O)[C@@H](N)CO)[C@@H](C)O)[C@@H](C)CC)C(=O)N[C@@H](C)C(=O)N[C@@H](CCSC)C(=O)N[C@@H](CC(=O)O)C(=O)N[C@@H](CCCNC(=N)N)C(=O)N[C@H](C(=O)N[C@@H](CCCCNC(=O)CC[C@H](NC(=O)CCCCCCCCCCCCCCC(=O)O)C(=O)O)C(=O)N[C@@H](CCC(N)=O)C(=O)N[C@@H](CCC(N)=O)C(=O)N[C@@H](CC(=O)O)C(=O)N[C@@H](Cc1ccccc1)C(=O)N[C@H](C(=O)N[C@@H](CC(N)=O)C(=O)N[C@@H](Cc1c[nH]c2ccccc12)C(=O)N[C@@H](CC(C)C)C(=O)N[C@@H](CC(C)C)C(=O)N[C@@H](C)C(=O)N[C@@H](CCC(N)=O)C(=O)N[C@@H](CCCNC(=N)N)C(=O)O)C(C)C)[C@@H](C)CC)", "note": "[AT265]", "CisBio cAMP agonism % Efficacy": 8, "CisBio cAMP antagonism % inhib": 73, "CisBio cAMP antagonism IC50": 58.4, "CisBio cAMP antagonism pIC50": 7.2, "DiscoveRx cAMP agonism Emax": 10, "DiscoveRx cAMP antagonism IC50": 33, "DiscoveRx cAMP antagonism log IC50": -7.5}
{"binder": "EGTFISDYSIAMDRIK([AEEA-AEEA-γGlu-C16 diacid])QQDFVNWLLAQR-NH2 (not fully specified (residue 1))", "note": "[AT374]", "CisBio cAMP agonism % Efficacy": 0, "CisBio cAMP antagonism % inhib": 86, "CisBio cAMP antagonism IC50": 17.1, "CisBio cAMP antagonism pIC50": 7.8, "DiscoveRx cAMP antagonism % inhib": 100, "DiscoveRx cAMP antagonism IC50": 12, "DiscoveRx cAMP antagonism log IC50": -7.9}
{"binder": "TFISDYSIALDRIKQQDFVNWLLAQR (HELM PEPTIDE1{T.F.I.S.D.Y.S.I.A.L.D.R.I.K.Q.Q.D.F.V.N.W.L.L.A.Q.R.[am]}|PEPTIDE2{[O=C(O)CCCCCCCCCCCCCCC(=O)[*:2]].[gGlu]}$PEPTIDE1,PEPTIDE2,14:R3-2:R2$$$V2.0; N-terminus assumed; SMILES CC[C@H](C)[C@H](NC(=O)[C@H](CO)NC(=O)[C@H](Cc1ccc(O)cc1)NC(=O)[C@H](CC(=O)O)NC(=O)[C@H](CO)NC(=O)[C@@H](NC(=O)[C@H](Cc1ccccc1)NC(=O)[C@@H](N)[C@@H](C)O)[C@@H](C)CC)C(=O)N[C@@H](C)C(=O)N[C@@H](CC(C)C)C(=O)N[C@@H](CC(=O)O)C(=O)N[C@@H](CCCNC(=N)N)C(=O)N[C@H](C(=O)N[C@@H](CCCCNC(=O)CC[C@H](NC(=O)CCCCCCCCCCCCCCC(=O)O)C(=O)O)C(=O)N[C@@H](CCC(N)=O)C(=O)N[C@@H](CCC(N)=O)C(=O)N[C@@H](CC(=O)O)C(=O)N[C@@H](Cc1ccccc1)C(=O)N[C@H](C(=O)N[C@@H](CC(N)=O)C(=O)N[C@@H](Cc1c[nH]c2ccccc12)C(=O)N[C@@H](CC(C)C)C(=O)N[C@@H](CC(C)C)C(=O)N[C@@H](C)C(=O)N[C@@H](CCC(N)=O)C(=O)N[C@@H](CCCNC(=N)N)C(N)=O)C(C)C)[C@@H](C)CC)", "note": "[AT233]", "CisBio cAMP agonism % Efficacy": 0, "CisBio cAMP antagonism % inhib": 70, "CisBio cAMP antagonism IC50": 34.2, "CisBio cAMP antagonism pIC50": 7.5, "DiscoveRx cAMP agonism Emax": 28, "DiscoveRx cAMP antagonism IC50": 32, "DiscoveRx cAMP antagonism log IC50": -7.5}
{"binder": "EGTFISDYSIAMDRIK([AEEA-γGlu-C18 diacid])QQDFVNWLLAQR-NH2 (not fully specified (residue 1))", "note": "[AT376]", "CisBio cAMP agonism % Efficacy": 0, "CisBio cAMP antagonism % inhib": 87, "CisBio cAMP antagonism IC50": 6.81, "CisBio cAMP antagonism pIC50": 8.2, "DiscoveRx cAMP antagonism % inhib": 90, "DiscoveRx cAMP antagonism IC50": 19, "DiscoveRx cAMP antagonism log IC50": -7.7}
